From the supplement of paper PMC9170038

Tested on: MS2 coat protein
Assay: apparent KD of MS2 coat protein; higher = weaker reporter binding
Conditions: Eterna round: R107
Method: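 RNA-MaP round R107: designed RNA switches with theophylline, tryptophan, arginine or FMN aptamers are transcribed on-chip within common flanks. They are titrated with SNAP-549-labelled MS2 coat protein in RNA-MaP buffer (100 mM Tris pH 7.5, 80 mM KCl, 4 mM MgCl2), without ligand or with the indicated ligand. Median apparent KD per design.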

[1] = input ligand: theophylline 20 uM
[2] = input ligand: tryptophan 2.4 mM
[3] = input ligand: theophylline 2 mM

Sequence | apparent KD of MS2 coat protein (input ligand: arginine 13.2 mM) | apparent KD of MS2 coat protein [1] | apparent KD of MS2 coat protein [2] | apparent KD of MS2 coat protein [3] | apparent KD of MS2 coat protein (input ligand: none)
AAUAACAUGAGGAUCACCCAUGUAAAAGAUACCAGAGUGAUGAUCCUCCCUUGGCAGCUUAAACGCUAUUGGAAACAAUAGCGAA [Mat - Same State Theophlline A - Mod of Eli - D3] | 54.5 nM | 163 nM | 57.7 nM | – | –
AAUAACAUGAGGAUCACCCAUGUAAAAGAUACCAGAGUGAUGAUCCUCCCUUGGCAGCUUAAUAACGCUAUCGGAAACGAUAGCG [Mat - Same State Theophlline A - Mod of Eli - D8] | 37.7 nM | 170 nM | 72 nM | – | –
AAUAAGAGCUCGGAUACCAGCGAAAACAGGCACAUGAGGAUCACCCAUGUUAACGCACUGCGCCCUUGGCAGCCGCACGUGUGUC [theeternabot_sameState_MS2_Theo_B_39] | 19.6 nM | 25.4 nM | 22 nM | – | –
AAUAAGAUCCUCAUGUGAGUCGUACCAUAACGAGGACCGGUACGGCCGCCACUCGAACAUGAGGAUCACCCAUGUAGGUACGACA [M'-T'-T-MS2-T'' - Design 8] | 49.8 nM | 320 nM | – | 882 nM | –
AAUAAUAAGGCGGCCGCCACUAAACAUGAGGAUCACCCAUGUCUCGAGCGCAUACAUAAGGGAUGUAGGACCGGGCCAAUAAUAA [Exclusion - Tryptophan B (Freestyle 1)] | 19 nM | 25.7 nM | 21.3 nM | 23 nM | 23.5 nM
AAUAAUAAGGCGGCCGCCACUAAACAUGAGGAUCACCCAUGUCUCGAGGGCUUGCGUUGGGAAAGUAGGACCGGGCCAAUAAUAA [Exclusion - Tryptophan B (Freestyle 7)] | 10.2 nM | 20.5 nM | 13.3 nM | 14.9 nM | 18.7 nM
AAUAAUCUAGGUGAUACCAGCUCAACAUGAGGAUCACCCAUGUGCUCAUGAAGAGCUGAGAGCCCUUGGCAGCACCUAGAUAAUA [(Theo1)-(Ms2)-(M)'-(T)'-(Theo2)_Design2] | 461 nM | 676 nM | 1100 nM | 28.5 nM | 739 nM
AAUAUAUAUCACGAACUGUGGUGUAUGUUGCGAGGACCGGUACGGCCGCCACUCGACCGGUGGUACAUGAGGAUCACCCAUGUUG [XTryp A #10] | 35.6 nM | 82 nM | 58.1 nM | 56.4 nM | 57.2 nM
AAUAUCAUGAGGAUCACCCAUGAAGAAGAUACCAGAGUGAUGAUCCUCCCUUGGCAGCUUAACGCUGAUUGAUUACAAUCAGCGA | 31.1 nM | 128 nM | 30.3 nM | 200 nM | 51.8 nM
AAUAUUAACUGAAGGAGCGUGUUAUGUACAUGAGGAUCACCCAUGUAUAGGGUAAUACUAACACAGGUAGGUCGCAGAAUAAUUA [JR_SSArginiB_Sub010] | 20.2 nM | 37.9 nM | 18.5 nM | 22 nM | 20.6 nM
AAUCAUGGAAACAUGACAUGAGGGUUACUCCGAGGACCGGUACGGCCGCCACUCGCGAGGAGGCGGACAUGAGGAUCACCCAUGU [#04 Tryptophan A Same State] | 32.4 nM | 240 nM | 41.6 nM | 260 nM | 392 nM
AAUCCAAGAAAUGAUACCAGUCCCACUCAGGACAUGAGGAUCACCCAUGUAAUACAGGGAGACCCUUGGCAGCAUCGAAUAAACA [theeternabot_sameState_MS2_Theo_B_33] | 178 nM | 479 nM | 1070 nM | – | –
AAUCUGUCGGGUGAUACCAGCCUCGGCACAUCUCGUGCCGAACAUGAGGAUCACCCAUGUGGCCCUUGGCAGCACAUGACAAAUC [Usreerso] | 289 nM | 801 nM | 520 nM | – | –
AAUGUGAUAGUCGUACUCUCACACUGAGAAGGAGCGCGAAAGUUCGCAGGUAGGUCGCUCAGUUAUACAUGAGGAUCACCCAUGU [Edgeised] | 21.9 nM | 26.8 nM | 20.9 nM | 27.3 nM | 21 nM
ACACAUGAGGAUCACCCAUGUUCAAUAGAUACCAGUGAUACGGUGCACCCUUGGCAGCUGUUGCUGAGUGAUGGUUCCCUCGGAA [#22 SameState-TheophyllineA] | 32.9 nM | 75.6 nM | 52.5 nM | – | –
ACACAUGAGGAUCACCCAUGUUGAGGAACACGAGGACCGGUACGGCCGCCACUCGACACAUGAGGAUCACCCAUGUGAUCACCCA [Same State Tryptophan A 2] | 49.7 nM | 129 nM | – | 173 nM | –
ACAGGUACGCCUAUUAAAAUAAAACACCUACGAGGACCGGUACGGCCGCCACUCGGGUGACAUGAGGAUCACCCAUGUGGCUAAA [Ceeron] | 101 nM | 610 nM | – | 851 nM | –
ACAUCCAGGUUAAUCGUGGACAUGGUCGAUACCAGUAUUUUAAUCUACCCUUGGCAGCGACAUGAGGAUCACCCAUGUGCGAUGA [XTheo A #14] | 13.8 nM | 17.2 nM | 14.9 nM | – | –
ACAUGAGGAUCACCCAUGUAAGGUCUUGAUACCAGACGCGAAGUAGUCCCUUGGCAGCAAAUACGUGAGGGUCGCACAUGUGUAA [mcnmullin] | 18.4 nM | 35.9 nM | 27.8 nM | 59.8 nM | 33.1 nM

Sequence | apparent KD of MS2 coat protein (input ligand: arginine 13.2 mM) | apparent KD of MS2 coat protein [1] | apparent KD of MS2 coat protein [2] | apparent KD of MS2 coat protein [3] | apparent KD of MS2 coat protein (input ligand: none)
ACAUGAGGAUCACCCAUGUAAUAAUCAGAAGGAGCGUGGAAUAACACAGGUAGGUCGCUGAUGUUUGGUUAAAAUUAUUCGUGAA [JR_ExcArginiA_Sub001] | 12.2 nM | 16.6 nM | 14 nM | 14 nM | 13.1 nM
ACAUGAGGAUCACCCAUGUAAUGGCACGAUACCAGCUGAUCCCGUGGCCCUUGGCAGCGUCCGGUGUGGUCCGCCGGGUUGGAGC [DDDMULLIN] | 28.7 nM | 39.5 nM | 27 nM | – | –
ACAUGAGGAUCACCCAUGUACAUAAGGGAAGGAGCGCGGUGGAACGCAGGUAGGUCGCCCAUAAUAACAAUAAAUAAAUUCAUGU [#04 Same State - Arginine A] | 14.7 nM | 23.6 nM | 16.5 nM | 17.5 nM | 14.7 nM
ACAUGAGGAUCACCCAUGUAGCCUAGGGAAGGAGCGGCAUAAAAGCCAGGUAGGUCGCCCGCAUGAGGAUCACCCAUGUCAAGGA [Same State Arginine A GF7] | 42.8 nM | 81.7 nM | 61 nM | 74.9 nM | 70 nM
ACAUGAGGAUCACCCAUGUAGUAGUCAGAAGGAGCGUGGAAUAACACAGGUAGGUCGCUGAUGUUUGGUUAAAUGUAAUCGUGUA [#30 Same State - Arginine A] | 19.6 nM | 27.6 nM | 17.8 nM | 18.3 nM | 17.4 nM
ACAUGAGGAUCACCCAUGUGAAGCAGGGUACGAGGACCGGUACGGCCGCCACUCGAGGAUUAUGCCGAGUGAAUGGCAACGAUGU [whbob_Ex_trypto A_2s19] | – | 22.7 nM | – | 16.2 nM | –
ACAUGAGGAUCACCCAUGUGCAGAACGGAUACCAGCGUGCUGGUACGCCCUUGGCAGCCGGACAUGAGGAUCACCCAUGUGUGGA [Exclusion Theophylline A GF28] | 32.1 nM | 55.7 nM | 66 nM | 164 nM | 42.1 nM
ACAUGAGGAUCACCCAUGUGCCGAGUUGAUACCAGACCCGCACUAGUCCCUUGGCAGCAACUACGUGUGGGACACCCAUGUUAAG [qaqmullin] | 29.1 nM | 85.5 nM | 47.9 nM | – | –
ACAUGAGGAUCACCCAUGUGGCGACUUGAUACCAGACCCGCACUAGUCCCUUGGCAGCAACUACGUGAGGGACACCCAUGUGAAG | 17.6 nM | 41.6 nM | 21.6 nM | 38.2 nM | 25.8 nM
ACAUGAGGAUCACCCAUGUUGAACUACCAUCGAGGACCGGUACGGCCGCCACUCGCGUUCUCCUUAGCAUCAAGGUCCGCGAAAC [theeternabot_exclusion_MS2_Trp_A_1] | 10.3 nM | 15.3 nM | – | 13.6 nM | –
ACAUGAGGAUCACCCAUGUUUGAUGUUCCUCGAGGACCGGUACGGCCGCCACUCGAACGAGUGGCGCGCGCGCGCGCGCGCGCGC [aQa] | 10.9 nM | 22.9 nM | 13 nM | 14.5 nM | 12.5 nM
ACAUGAGGGAUGGAUACCAGCGACAUGAGGAUCACCCAUGUAUGAGGAUCAGCCAUGUUAUGCCCUUGGCAGCCACGAACAUCAG [EDEMULLIN] | 27.3 nM | 45.2 nM | 29.8 nM | – | –
ACAUGAGGGCGAAGGAGCGCGAACAUGAGGAUCACCCAUGUGUAUGUAUGUUGUCAUGUAUCGCAGGUAGGUCGCGCUGUUACAU [Exclusion Arginine B] | 90.1 nM | 245 nM | 307 nM | 341 nM | 233 nM
ACAUUAGCCACGGCCGCCACUGCUUUAUGAUUAUAAGGAUUAAUGAACAUGAGGAUCACCCAUGUCAGGACCGGGUGCCUACCAU [SSTryp B #4] | 31.4 nM | 42.3 nM | – | 39 nM | –
ACAUUUAACUGAAGGAGCGUGAUAAACAUGAGGAUCACCCAUGUACCACAGAUUUUCAGAUCACAGGUAGGUCGCAGACUAAUGA [JR_ExcArginiB_Sub014] | 9.29 nM | 14.1 nM | 11.5 nM | 11.3 nM | 11.1 nM
ACAUUUAACUGAAGGAGCGUGAUAUGUACAUGAGGAUCACCCAUGUCUUUCAUGUGAUUUUCACAGGUAGGUCGCAGACUAAUGA [JR_ExcArginiB_Sub003] | 11.8 nM | 14.2 nM | 11.6 nM | 13 nM | 11.5 nM
ACCGCAUCCGUAUAGGAUGCGGCCCAUGAAGGAGCGUGGGAAACCACAGGUAGGUCGCAUGGAAAACAUGAGGAUCACCCAUGUG [Alien] | 114 nM | 442 nM | 489 nM | 920 nM | 524 nM
ACCUACACGGAAACGUGUAGAAGUAAUGAUACCAGCAUGGAAACAUGCCCUUGGCAGCGUUACAUGAGGAUCACCCAUGUAUGUU [#01 Exclusion-TheophyllineA] | 16.4 nM | 19.9 nM | 15.4 nM | – | –
ACCUGUACGAAAAGUGCAGGACACGGAAUACGAGGACCGGUACGGCCGCCACUCGGAAUAACCUGAGGAUCACCCUGGUACCGUG [TrypAS 10 #AlternativeMS2 #Zipper #StaticStem] | 25.8 nM | 27.5 nM | 19.2 nM | 26.7 nM | 18.8 nM
